Among the data in US20230167188A1 (BIOLOJIC DESIGN, published 2023) are EC50 values, retold here.

Sequences and labels used below:
T1: recombinant human TNFR2 with 6×his tag (human, UniProt P20333 23-257, limits assumed)
T1 construct: Bought (Reprokine, Israel); also called TNFR2-His; hTNFR2-His; not shown: 6xHis tag
T1 sequence (looked up): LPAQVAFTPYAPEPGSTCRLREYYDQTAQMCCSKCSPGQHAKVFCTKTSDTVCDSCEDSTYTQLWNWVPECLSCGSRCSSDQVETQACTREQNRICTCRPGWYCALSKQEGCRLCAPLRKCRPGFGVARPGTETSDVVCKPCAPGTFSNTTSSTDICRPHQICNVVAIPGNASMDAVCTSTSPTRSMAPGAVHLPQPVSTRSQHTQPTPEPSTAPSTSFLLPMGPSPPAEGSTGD

B1: BDG30.080 (antibody, human IgG1, kappa, V domains shown)
VH: EVQLVESGGGLVQPGGSLRLSCAASGFNIRAMYIHWVRQSPGKGLEWVADIDPTNGDTRYADSVKGRFTISADTSKNTAYLQMNSLRAEDTAIYYCTREGQDGYNAFDKWGQGTLVTVSS
VL: DIQMTQSPILLSASVGDRVTITCRASQDVSTAVAWSQQRTNGSPRLLIYSASSLYSGVPSRFSGSRSGTDFTLTISSLQPEDIADYYCQQHRYTPPTFGAGTKVEIKR
notes: Human IgG1; also called IgG of CID_229
B2: CID_324 (scFv)
scFv: EVQLVQSGPELKKPGASVKVSCKGSGYTFTDLGINWVRQAPGQGLEWMGWINTHTGEPFYADDFKGRFVFSLDTSVSTAYLQISSLKAEDTAVYYCTRDHPLGLDYWGQGTLVTVSSDIQVTQSPSSLSASVGDRVTITCITSQSVDVNGVSYLNWYQQKPGKVPKFLIYKASRLRSGVPSRFSGSGSGTDFTLTISSLQPEDVATYYCQQSREDPYTFGQGTKVEIK
B3: CID_330 (scFv)
scFv: B2 scFv with F59Y, T97A, L154M, S173V, R174N, S177P
B4: CID_323 (scFv)
scFv: B2 scFv with G24A, I34M, E57M, T97A, R174N, S177P
B5: CID_328 (scFv)
scFv: B2 scFv with I34M, H54Q, Y95F, T97A, R174I
B6: CID_325 (scFv)
scFv: B2 scFv with G24A, N35G, V151L, P165T, R174N, R176G
B7: CID_329 (scFv)
scFv: B2 scFv with Y95F, R174N, S177P
B8: CID_326 (scFv)
scFv: B2 scFv with G24A, I34M, E57K, R174N
B9: CID_327 (scFv)
scFv: B2 scFv with I34M, N35G, H54Q, N149A, Y170H, R174N, S212A
B10: CID_251 (scFv)
scFv: EVQLVQSGAEVKKPGSSVKVSCKASGDTFTSYSFNWVRQAPGQGLEWMGRIITILDDTEYAPHLQGRVTITADKSTSTVYLELRNLRSDDTAVYFCAGVYEGPNSEGSYDDYGFLKHWGQGTLVTVSSDIVMTQSPATLSVSPGERATLSCRASESVANDLAWYQQKPGQVPRLLIYGASTRATGVPARFSGSGSGAEFTLTISSLQSEDFAVYYCQQYANWPPRETFGQGTRLEIK
B11: CID_436 (scFv)
scFv: DIQMTQSPILLSASVGDRVTITCRASQDVSTAVAWSQQRTNGSPRLLIYSASSLYSGVPSRFSGSRSGTDFTLTISSLQPEDIADYYCQQPTYTPPTFGAGTKVEIKEVQLVESGGGLVQPGGSLRLSCAASGFNIRDTYIHWVRQSPGKGLEWVADIDPDNGDTRYADSVKGRFTISADTSKNTAYLQMNSLRAEDTAIYYCSRDLADGYNAFDRWGQGTLVTVSS
B12: CID_437 (scFv)
scFv: B11 scFv with T92P, Y140F, D206E, L207G, A208E, F214W, R216L

Numbering of substitutions follows the chain as printed.

The target of one assay is T1, recombinant human TNFR2 with 6×his tag. The experiment in a line: ELISA, IgG coated, soluble TNFR2-His titrated. The protocol:
(§1) IgG binding affinity to TNFR2 was examined by ELISA. 96 well plates (Greiner Bio-One high binding) were coated with (50 ng/well) of the analyzed antibody and incubated overnight at 4° C. The plates were then washed three times with 300 μl PBS buffer containing 0.05% Tween 20 (PBS-T), blocked with 300μ PBS-T supplemented with 1% to 2% BSA, and incubated for 1 hour at room temperature. Antibodies-coated plates were washed three times with 300 μl PBS-T and incubated with serial dilutions of test ligand hTNFR2-His (Reprokine, Israel) in a final volume of […] for 1-2 hours. Plates were then washed three times with 300 μl PBS-T and incubated with 50 μl anti-HIS-HRP (Santa Cruz Biotechnology, USA, SC-8036HRP) conjugate that was diluted 1:250 in PBS. After an additional wash step of six washes, the reaction was developed with […] tetramethylbenzidine (TMB) reagent (Southern biotech, USA), and stopped with […] 0.5N H₂SO₄. Detection was done on a Synergy LX BioTek (BioTek, USA) plate reader with an absorbance filter set to […]. The binding affinity was determined by fitting the data to a specific binding non-linear regression model on Prisma 8 GraphPad software.
(§2) To test binding affinity of clones reformatted as IgG1 and IgG1LALA to TNFR2, an ELISA EC₅₀ binding experiment was conducted for each antibody.
In general terms: ELISA stands for enzyme-linked immunosorbent assay.
Take B1: the EC50 (in general, the midpoint of the concentration-response curve) came to 66 nM.

For the next assay the target is unchanged. The experiment in a line: ELISA, IgG coated, hTNFR2-His titrated, anti-His-HRP. The protocol:
as §1, §2
Turning to B1, the EC50 was 66.3 nM.

Another assay has the same target. The experiment in a line: yeast surface display, TNFR2-His titrated, flow cytometry MFI. The protocol: To determine the effective concentration₅₀ (EC₅₀) of TNFR2 binding to yeast scFv or Fab clones (EC₅₀— TNFR2 binding), specific clones were labeled at TNFR concentrations ranging from 0.1 nM to 1000 nM and analyzed on an FACS. Median fluorescence intensity (MFI) was determined for each TNFR2 concentration and EC₅₀ (TNFR2 binding) was calculated using Prisma 8 GraphPad (GraphPad, San Diego, USA) software.
For orientation: Flow cytometry measures light scatter and fluorescence of single cells or particles in a stream.
On to B2, for which the EC50 was found to be 5.6 nM.

Take B3: the EC50 came to 17.7 nM.

With B4, the EC50 was 5.2 nM.

Turning to B5, the EC50 was found to be 5.7 nM.

Take B6: the EC50 was 2.9 nM.

Take B7: the EC50 is 8.6 nM.

In the case of B8, the EC50 came out at 6 nM.

As to B9, the EC50 is 4.5 nM.

B10: the EC50 stood at 1 nM.

As for B11, the EC50 was 3.4 nM.

For the molecule B12, the EC50 came to 1.2 nM.
